Where a chain is given by its changes, count along the chain named.
B1: NRC3_wobSeed113_DR4_G29C_o1 (dsDNA)
DNA 1: GCATATGTAGGTTAGCTGGGGTCATTCACACTAGGCGCGATTGACAGCGTAGAATGAAGG
DNA 2: CCTTCATTCTACGCTGTCAATCGCGCCTAGTGTGAATGACCCCAGCTAACCTACATATGC
B2: NRC3_wobSeed92_DR3_T13C_o1 (dsDNA)
DNA 1: GCAGAATGAGGTCATTAAGATCAGGGAATTGCGGTCGCGATTGACAGCGTAGAATGAAGG
DNA 2: CCTTCATTCTACGCTGTCAATCGCGACCGCAATTCCCTGATCTTAATGACCTCATTCTGC
B3: NRC3_wobSeed34_DR1_T4A_o1 (dsDNA)
DNA 1: GCAACGAAAGGTCGAAGGTGAGTATACCCACCCGAAGCGATTGACAGCGTAGAATGAAGG
DNA 2: CCTTCATTCTACGCTGTCAATCGCTTCGGGTGGGTATACTCACCTTCGACCTTTCGTTGC
B4: NRC3_wobSeed34_DR1_A21C_o1 (dsDNA)
DNA 1: B3 DNA 1 with A4T, A21C
DNA 2: B3 DNA 2 with T40G, T57A
B5: NRC3_wobSeed135_DR5_T8A_o1 (dsDNA)
DNA 1: GCCGAACAAGGTCATTGACAGGACAGTGAATAGTAAGCGATTGACAGCGTAGAATGAAGG
DNA 2: CCTTCATTCTACGCTGTCAATCGCTTACTATTCACTGTCCTGTCAATGACCTTGTTCGGC
B6: NRC3_wobSeed135_DR5_A29G_o1 (dsDNA)
DNA 1: B5 DNA 1 with A8T, A29G
DNA 2: B5 DNA 2 with T32C, T53A
B7: NRC3_wobSeed87_DR3_A5C_o1 (dsDNA)
DNA 1: GCCGCACTAGGTCATCCAGGACAGTGAATACATTGAGCGATTGACAGCGTAGAATGAAGG
DNA 2: CCTTCATTCTACGCTGTCAATCGCTCAATGTATTCACTGTCCTGGATGACCTAGTGCGGC
B8: NRC3_wobSeed87_DR3_A23C_o1 (dsDNA)
DNA 1: B7 DNA 1 with C5A, A23C
DNA 2: B7 DNA 2 with T38G, G56T
B9: NRC3_wobSeed134_DR5_G26C_o1 (dsDNA)
DNA 1: GCGCTGCTAGGTCAACTGATGGTCACCTAAAGCTCGGCGATTGACAGCGTAGAATGAAGG
DNA 2: CCTTCATTCTACGCTGTCAATCGCCGAGCTTTAGGTGACCATCAGTTGACCTAGCAGCGC
B10: NRC3_wobSeed134_DR5_T23C_o1 (dsDNA)
DNA 1: B9 DNA 1 with T23C, C26G
DNA 2: B9 DNA 2 with G35C, A38G
B11: NRC3_wobSeed14_DR0_T8G_o1 (dsDNA)
DNA 1: GCCCTGCGAGGTCATGGTCAGCTAATCTACAGTATGGCGATTGACAGCGTAGAATGAAGG
DNA 2: CCTTCATTCTACGCTGTCAATCGCCATACTGTAGATTAGCTGACCATGACCTCGCAGGGC
B12: NRC3_wobSeed42_DR1_C7A_o1 (dsDNA)
DNA 1: GCTATAAAGGGTCAAAGGCCAGAGTACGAATGTCGAGCGATTGACAGCGTAGAATGAAGG
DNA 2: CCTTCATTCTACGCTGTCAATCGCTCGACATTCGTACTCTGGCCTTTGACCCTTTATAGC
B13: NRC3_wobSeed50_DR2_G11T_o1 (dsDNA)
DNA 1: GCCCTAGTTGTTCAGGAGGTCACACACCGGATATGAGCGATTGACAGCGTAGAATGAAGG
DNA 2: CCTTCATTCTACGCTGTCAATCGCTCATATCCGGTGTGTGACCTCCTGAACAACTAGGGC
B14: NRC3_wobSeed39_DR1_G22T_o1 (dsDNA)
DNA 1: GCCGAACTAGGTCAAAGGACATTGAAAGGCGACGTAGCGATTGACAGCGTAGAATGAAGG
DNA 2: CCTTCATTCTACGCTGTCAATCGCTACGTCGCCTTTCAATGTCCTTTGACCTAGTTCGGC
B15: NRC3_wobSeed15_DR0_G23A_o1 (dsDNA)
DNA 1: GCCGAACTAGGTCAAGGACAGTAAATCTCCGCACGCGCGATTGACAGCGTAGAATGAAGG
DNA 2: CCTTCATTCTACGCTGTCAATCGCGCGTGCGGAGATTTACTGTCCTTGACCTAGTTCGGC
B16: NRC3_wobSeed136_DR5_T16A_o1 (dsDNA)
DNA 1: GCTAGCCTAGGTCATACAGGGGCCAGTATAGAAAGCGCGATTGACAGCGTAGAATGAAGG
DNA 2: CCTTCATTCTACGCTGTCAATCGCGCTTTCTATACTGGCCCCTGTATGACCTAGGCTAGC
B17: NRC3_wobSeed10_DR0_T4G_o1 (dsDNA)
DNA 1: GCAGCGAAAGGTCGAGGTGAGTATAGAGAAAGGGAAGCGATTGACAGCGTAGAATGAAGG
DNA 2: CCTTCATTCTACGCTGTCAATCGCTTCCCTTTCTCTATACTCACCTCGACCTTTCGCTGC
B18: NRC3_wobSeed82_DR3_A18C_o1 (dsDNA)
DNA 1: GCATCGAAAGGTCGACGCGGTGAGTATACACCGTTTGCGATTGACAGCGTAGAATGAAGG
DNA 2: CCTTCATTCTACGCTGTCAATCGCAAACGGTGTATACTCACCGCGTCGACCTTTCGATGC
B19: NRC3_wobSeed63_DR2_T8A_o1 (dsDNA)
DNA 1: GCCGAACAAGGTCACCAGGACAGTGAAGAGGTTGGAGCGATTGACAGCGTAGAATGAAGG
DNA 2: CCTTCATTCTACGCTGTCAATCGCTCCAACCTCTTCACTGTCCTGGTGACCTTGTTCGGC
B20: NRC3_wobSeed141_DR5_A29T_o1 (dsDNA)
DNA 1: GCAGTCAAAGTTCAGGACGAGGTAACGTTAAGCACGGCGATTGACAGCGTAGAATGAAGG
DNA 2: CCTTCATTCTACGCTGTCAATCGCCGTGCTTAACGTTACCTCGTCCTGAACTTTGACTGC
B21: NRC3_wobSeed13_DR0_C13T_o1 (dsDNA)
DNA 1: GCCGTCCAAGGTTAAGGTCAGTGAAAGAGACTCGAAGCGATTGACAGCGTAGAATGAAGG
DNA 2: CCTTCATTCTACGCTGTCAATCGCTTCGAGTCTCTTTCACTGACCTTAACCTTGGACGGC
B22: NRC3_wobSeed88_DR3_C21A_o1 (dsDNA)
DNA 1: GCTAGCCTAGGTCATGCGGGACAGTATAGTGTCGGCGCGATTGACAGCGTAGAATGAAGG
DNA 2: CCTTCATTCTACGCTGTCAATCGCGCCGACACTATACTGTCCCGCATGACCTAGGCTAGC
B23: NRC3_wobSeed88_DR3_G20C_o1 (dsDNA)
DNA 1: B22 DNA 1 with G20C, A21C
DNA 2: B22 DNA 2 with T40G, C41G
B24: NRC3_wobSeed76_DR3_G9C_o1 (dsDNA)
DNA 1: GCCCTACTCGGCCAAAAAGGTCATTGATGCCGATAAGCGATTGACAGCGTAGAATGAAGG
DNA 2: CCTTCATTCTACGCTGTCAATCGCTTATCGGCATCAATGACCTTTTTGGCCGAGTAGGGC
B25: NRC3_wobSeed138_DR5_G19C_o1 (dsDNA)
DNA 1: GCGATACAGGGTCAGCTACAGGCCAGAGTATGGAAAGCGATTGACAGCGTAGAATGAAGG
DNA 2: CCTTCATTCTACGCTGTCAATCGCTTTCCATACTCTGGCCTGTAGCTGACCCTGTATCGC
B26: NRC3_wobSeed46_DR1_A25C_o1 (dsDNA)
DNA 1: GCTTACCAAGGTGAAAGGTCGTTGCTGCACGCCTTGGCGATTGACAGCGTAGAATGAAGG
DNA 2: CCTTCATTCTACGCTGTCAATCGCCAAGGCGTGCAGCAACGACCTTTCACCTTGGTAAGC
B27: NRC3_wobSeed37_DR1_A14G_o1 (dsDNA)
DNA 1: GCCGTCCAAGGTCGAAGGTCAGTGAAGAGATGACGGGCGATTGACAGCGTAGAATGAAGG
DNA 2: CCTTCATTCTACGCTGTCAATCGCCCGTCATCTCTTCACTGACCTTCGACCTTGGACGGC
B28: NRC3_wobSeed112_DR4_G15C_o1 (dsDNA)
DNA 1: GCTAGCCTAGGTCACATCGGGCCAGTATACGCTATAGCGATTGACAGCGTAGAATGAAGG
DNA 2: CCTTCATTCTACGCTGTCAATCGCTATAGCGTATACTGGCCCGATGTGACCTAGGCTAGC
B29: NRC3_wobSeed44_DR1_A5T_o1 (dsDNA)
DNA 1: GCTGTATGAGGTTAAAGATCAGGGAACGTGGCGTCGGCGATTGACAGCGTAGAATGAAGG
DNA 2: CCTTCATTCTACGCTGTCAATCGCCGACGCCACGTTCCCTGATCTTTAACCTCATACAGC
B30: NRC3_wobSeed27_DR1_T5G_o1 (dsDNA)
DNA 1: GCACGCGGAGGACAAAGGTCAGAGCTACGCCAGTGAGCGATTGACAGCGTAGAATGAAGG
DNA 2: CCTTCATTCTACGCTGTCAATCGCTCACTGGCGTAGCTCTGACCTTTGTCCTCCGCGTGC
B31: NRC3_wobSeed114_DR4_T5A_o1 (dsDNA)
DNA 1: GCAAAACAGGGTCATCGTAGGCCAGAGTACGCACAGGCGATTGACAGCGTAGAATGAAGG
DNA 2: CCTTCATTCTACGCTGTCAATCGCCTGTGCGTACTCTGGCCTACGATGACCCTGTTTTGC
B32: NRC3_wobSeed114_DR4_C7A_o1 (dsDNA)
DNA 1: B31 DNA 1 with A5T, C7A
DNA 2: B31 DNA 2 with G54T, T56A
B33: NRC3_wobSeed114_DR4_G20C_o1 (dsDNA)
DNA 1: B31 DNA 1 with A5T, G20C
DNA 2: B31 DNA 2 with C41G, T56A

Target: FXR:RXRa (Homo sapiens, UniProt Q96RI1;P19793 full;full)
Test: no ligand; PBM; 270 nM : 90 nM RXRa; PBS pH 7.4, 2% milk, 0.02% Triton X-100, 1 mM DTT, BSA, 0.4 mg/ml salmon testes DNA
Settings: tags: His kept;His cleaved; copies: 1;1; label: surface-attached array probe
Summary of the method: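 For binding z-scores, the reference was random background probes on custom Agilent 4×180K protein-binding microarrays. These arrays were incubated 1 h with ligand-free nuclear receptor dimers in PBS pH 7.4, 2% milk, 0.02% Triton X-100, 1 mM DTT, 0.2 mg/mL BSA and 0.4 mg/ml salmon testes DNA. Fluorescence was scanned after antibody detection of each partner (one per run) and regression-normalized.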

Sequence of FXR:RXRa (Q96RI1 whole entry, chain 1 of 2): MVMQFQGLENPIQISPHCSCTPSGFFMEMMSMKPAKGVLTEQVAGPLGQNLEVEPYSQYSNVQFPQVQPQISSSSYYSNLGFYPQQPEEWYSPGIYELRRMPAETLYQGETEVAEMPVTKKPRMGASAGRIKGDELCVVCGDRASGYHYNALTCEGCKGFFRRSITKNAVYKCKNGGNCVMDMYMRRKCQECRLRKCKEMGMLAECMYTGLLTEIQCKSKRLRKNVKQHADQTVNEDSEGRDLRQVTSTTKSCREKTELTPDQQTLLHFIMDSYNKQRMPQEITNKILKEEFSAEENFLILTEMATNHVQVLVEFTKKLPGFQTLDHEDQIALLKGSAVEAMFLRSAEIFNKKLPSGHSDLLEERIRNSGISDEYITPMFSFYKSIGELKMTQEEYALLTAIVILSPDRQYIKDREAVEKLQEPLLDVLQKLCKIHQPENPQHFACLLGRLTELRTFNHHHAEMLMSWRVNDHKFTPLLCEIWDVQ
Sequence of FXR:RXRa (P19793 whole entry, chain 2 of 2): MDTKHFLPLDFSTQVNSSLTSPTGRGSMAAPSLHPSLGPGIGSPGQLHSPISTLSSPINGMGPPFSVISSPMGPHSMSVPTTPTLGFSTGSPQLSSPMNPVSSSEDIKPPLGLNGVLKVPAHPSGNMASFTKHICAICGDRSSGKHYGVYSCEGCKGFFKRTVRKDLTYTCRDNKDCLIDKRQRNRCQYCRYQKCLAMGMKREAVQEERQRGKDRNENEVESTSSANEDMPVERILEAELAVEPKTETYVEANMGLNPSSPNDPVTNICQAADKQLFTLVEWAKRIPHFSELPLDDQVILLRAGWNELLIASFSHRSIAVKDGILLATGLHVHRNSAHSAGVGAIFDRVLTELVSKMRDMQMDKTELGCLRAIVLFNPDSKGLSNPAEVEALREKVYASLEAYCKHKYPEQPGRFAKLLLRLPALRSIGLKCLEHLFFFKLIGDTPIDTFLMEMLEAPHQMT

Binder | binding signal
B1 | 4.06 PBM z-score against 500 random probes
B2 | 7.7 PBM z-score against 500 random probes
B3 | 4.23 PBM z-score against 500 random probes
B4 | 4.14 PBM z-score against 500 random probes
B5 | 7.74 PBM z-score against 500 random probes
B6 | 4.02 PBM z-score against 500 random probes
B7 | 4.33 PBM z-score against 500 random probes
B8 | 3.93 PBM z-score against 500 random probes
B9 | 4.42 PBM z-score against 500 random probes
B10 | 3.9 PBM z-score against 500 random probes
B11 | 7.8 PBM z-score against 500 random probes
B12 | 7.71 PBM z-score against 500 random probes
B13 | 3.71 PBM z-score against 500 random probes
B14 | 4.46 PBM z-score against 500 random probes
B15 | 3.73 PBM z-score against 500 random probes
B16 | 4.09 PBM z-score against 500 random probes
B17 | 4.31 PBM z-score against 500 random probes

Binder | binding signal
B18 | 3.87 PBM z-score against 500 random probes
B19 | 7.74 PBM z-score against 500 random probes
B20 | 4.29 PBM z-score against 500 random probes
B21 | 4.12 PBM z-score against 500 random probes
B22 | 4.37 PBM z-score against 500 random probes
B23 | 3.84 PBM z-score against 500 random probes
B24 | 3.98 PBM z-score against 500 random probes
B25 | 4.25 PBM z-score against 500 random probes
B26 | 3.81 PBM z-score against 500 random probes
B27 | 3.76 PBM z-score against 500 random probes
B28 | 3.96 PBM z-score against 500 random probes
B29 | 3.64 PBM z-score against 500 random probes
B30 | 4.39 PBM z-score against 500 random probes
B31 | 7.8 PBM z-score against 500 random probes
B32 | 7.8 PBM z-score against 500 random probes
B33 | 7.71 PBM z-score against 500 random probes
